The DeepSol protein solubility set

Experiment: soluble on expression in E. coli; label from the status in PepcDB or PDB records

| Sequence | soluble on expression in E. coli |
| --- | --- |
| MGSGKPPLILASGSPRRKALLEALGYPIRVAVPGVEEEGLPLPPKALAQALARRKGEAVQGEWVLAADTVVDLDGEVLGKPKDPEENRLFLRRLSGRLHLVHTAFYLRTPKEVVEEVHTARVFFRPLSEEEIAWYVGSGEGLDKAGGYGAQGLGMALLERVEGDFYTVVGLPVSRVFALLWARGFRP | soluble |
| MQVIVGHSSTRLPENNENGHTHKWTLFVKPGNRDYDEFPDNKLIQKVKFEIHESFAQPVRFVTKPPFKITETGFASFTTLVTIFLNLPNEKPRTIPYELTLFTGDQDVQLETQKLVVQKDVPPAYLELIKKYARTKKRKASLISNDEKSPSRKMHKITPVKEEESSQKMSKSKEKGVPIPKIDIEIEKASPKKEKKEKVKSPEELTRRLNECTDSHVIYKASEYLLTLPDTKLSQTTLKLSFDLSRCDSTTLMDIGRILKGKKAKK | not soluble |
| MDKGLSRLVELLNARGASMEEMVRLLEEERASIVALQAERLQAAVEQKVQVAARMEALDGDCRRVIADEARVRGLGEATLSPLLAGNPSPEKTELAGLQTKLSTLAQEIKGMIADNRRLLETSMVTVGRSLAFFQSRLTVAETYGNSGSMVERSSGGILRKEI | not soluble |
| MGHHHHHHSHMARATTKQDLIMASNGQFEKLWVLIDGMSDDLQNATFADQMATAGKEAHWGRDKNLRDVLVHLYEWHQLLLNWINSNSKGERKPFLPEPYNWKTYSVMNVEFWKKHQQTPLAEAKDKLKESHRQVMALIETFSNDELFAKGVFDWTDTSTLGAYCVSATSSHYDWAMKKIKLHIKTGK | soluble |
| SNAMQAIRSILVVIEPDQLEGLALKRAQLIAGVTQSHLHLLVCEKRRDHSAALNDLAQELREEGYSVSTNQAWKDSLHQTIIAEQQAEGCGLIIKQHFPDNPLKKAILTPDDWKLLRFAPCPVLMTKTARPWTGGKILAAVDVGNNDGEHRSLHAGIISHAYDIAGLAKATLHVISAHPSPMLSSADPTFQLSETIEARYREACRTFQAEYGFSDEQLHIEEGPADVLIPRTAQKLDAVVTVIGTVARTGLSGALIGNTAEVVLDTLESDVLVLKPDDIIAHLEELASKE | soluble |
| GMDKQAILDNIHQTWQEEANAISRLPEVTSEEALVKTVEKIAECTGKIVVAGCGTSGVAAKKLVHSFNCIERPAVFLTPSDAVHGTLGVLQKEDILILISKGGNTGELLNLIPACKTKGSTLIGVTENPDSVIAKEADIFFPVSVSKEPDPFNMLATASTMAVIASFDAVIVCLMTYMNYTKEQFSVIHPGGAVGNKLLNK | soluble |
| HHHHHHGCMSGRKPIIGVMGPGKADTAENQLVMANELGKQIATHGWILLTGGRSLGVMHEAMKGAKEAGGTTIGVLPGPDTSEISDAVDIPIVTGLGSARDNINALSSNVLVAVGMGPGTAAEVALALKAKKPVVLLGTQPEAEKFFTSLDAGLVHVAADVAGAIAAVKQLLAKLN | soluble |
| MNQWDQFLTPYKQAVDELKVKLKGMRKQYEVGEQASPIEFVTGRVKPIASIIDKANKRQIPFDRLREEMYDIAGLRMMCQFVEDIDVVVNILRQRKDFKVIEERDYIRNTKESGYRSYHVIIEYPIETLQGQKFILAEIQIRTLAMNFWATIEHTLRYKYDGAYPDEIQHRLERAAEAAYLLDEEMSEIKDEIQEAQKYYTQKRSKKHEND | not soluble |
| MSLKFVGLVGSNYDQSYNRKLLEFIRRYFKLKFELEVLEIDEVPMFNQDEKWDESFQLRYLYNKITRADGVIIATPEHNHTISASLKSVLEWLSYEVHPFENKPVMIVGASYYDQGTSRAQVHLRKILDAPGVNAYTLPGNEFLLGKAKEAFDNNGNITNEGTVKFLETCLDNFVKYVGVVSKLKKPKPIESEDLDCGKPIATTITEVDPDDPEWVEKVAAFTGAVSGDTYVKLDHGILTVNQIDMFLKAMPFELTYADDNNQFLYYNNAHQDPDTMFAKRVPPQSGSRMSTVHGSLPPARMKNVEWVIGTLRNGNQEYVRTIVPGSPAGVINTHNYQAMYYPDGSYAGINEIVFNFQPWLDWYLKETGQRLVGGSGPFAPAAGGHGDADATSGASDSGDAGGHGGDADATAGASYEGHHHHHH | soluble |
| MPGIIQIDDMNQSQALIGNNDEHLKAIEESFDVVIHARGQEVAVKGTKIENVEKAESVLINLLKVIDLGNNITIKDVEAAIKMAHNNTIQHLLDLYDEEITKDAFGKTIRAKTMGQRIYVNAMKNNDLVFGIGPAGTGKTFLAVVYAAKQLRKGAVKRIVLTRPAVEAGESLGFLPGDLKEKVDPYLRPLYDGLYTVLGREQTERFIERGIIEIAPLAYMRGRTLEDAFVILDEAQNTTHAQMKMFLTRLGFGSKMVVTGDQTQIDLPKGVKSGLKEAVSRLHNVKGISILKLDQSDVVRHPLVSKIIEHYEGEN | not soluble |
| MGSDKIHHHHHHMHGELGKENELDGEIFRQGPVEIRDSRQKVIHSGFSPESQIIEGINAIIKLAHSEEESNLVGIMMSHFMFESIHPFYDGNGRTGRYLLGIQLSKILSPATALTMSSAINQFRNKYYKAFHAVEHRLNRGDGTPFVISMLELLIAAQEGLIENIKQRIDFLASLEDAIKTLRGTNSFKNHQINLLYILGQIQLFGKDETLSLESAAKFLKVSKATATRYFRTLREMELVHEVSKRPLRFALTDKGREIVGLEVKI | not soluble |
| MYAYDIYEPIGRKDGEIFPVIFALHGFGGDELDMAGRLELLMDRFVVVSMRGDVEYGPTYGFYHMVTEGDPNAREVDYTSLRVAEFIDEVCNDYVSIDKNQIFLVGFDQGAVLTISIMQSYGGQYKAAALLSGRLPHYLEERPANLMLKDKRIFIGHGIEDAVIQIAEAEEIAQFFQKMGCNVEKHSYFVGHNVNEAEEDDLYSWFESFLP | not soluble |
| GPGSMFHRAFVSSSDLTGCTIALSSVCTQKRYWAKPKKRPKVGQGFHEKAQKWREEYLLDRHRALADSLRAYVEFSTSKRVEPWDARFKPFDRIEKDGVYVLMRYMMEEKLQLCNYHHRPVKRLFCNIGLMGPQITTKARWKPYRFATNPAGTSKAERMYQRDKTVYTHGHND | not soluble |
| GMNDRKILVAYFSCSGVTKAVAEKLAAITGADLYEIKPEVPYTEADLDWNDKKSRSSVEMRDALSRPAISGTLFHPEKYEVLFVGFPVWWYIAPTIINTFLESYDFAGKIVVPFATSGGSGIGNCEKNLHKAYPDIVWKDGKLLNGQITRDLVTEWFEKIRL | soluble |
| MSDKDEGTERLVALLERLGVNRWAARSEADDAVVNARNLVPMFLLLREVWKHVVREGDTSWLQKDARLLAQEPEAGWSDMRRALASLQAKGATAQELTDVVKGKQVSLLYDVFETLCDDDPDLEAEFSGIGWGVFETDAVGRPGRRMDRLFAPVVTLDPTGRCMGPRE | not soluble |
| MTILEELNDSSIPQRLDNHIFFGSVHSLTHTDFLVENNIRFFINVDLSTELISHIYHEVRSKFAHEIVIVNIDNDSQIPIESDLVRSFHWHNTSLLQQLIHHLDFLSGINNHGEPLTPPPESHYRNAYVQFDHPSDSVSILDKLLYGNKSEYSRTNIFQVTNEAKFQVFNDLITIFKYSIAQGGNTNSNILVLSENGSTDENLISLLMSTVLKENPTFNVYQALQFVKSIAVIPDTVRDEKILWVTGFINYQELIKKNEMYWGLGSQKGRKLTSFASPISKVERKQRRRDDQNIMRSKLPQQRQNPFCSTERPKRARCD | not soluble |
| SSHGIGDALGSDWPGREPRATDNRGQYLKGESWVSGRPGHPKLREVGFLRGEPPSAGPKGLGTWSELSHRYFELGQLPYAYPYYKVLPEGELRCVSLDRFNPGLSEETVEDEKTLKFFRWSADSRGVTGSAIFQISKSLMP | soluble |
| MSYNFELSYVKGCDSVHVVEHKTSAVYYPRSNGAAERFVDTLKRGIAKIKGEGSVNQQILNKFLISYRNTPHSALNGATPAECHFGRKIRTTMSLLMLTDRVLKVPKLTQYQQNMKHHYDLRNGARAKNFQVNQKVYVQVHQGNKSHWKHGVIRRKFGGVLYEVQVGDRMQKSHVNQIRTRCGDYSREDIFEETIYPLFFSTPGKFTSCSDNKSRSGATGGETNLFDSSGSSVNPRLSSDSFGFVGESGGDEMSRSDDPVVTSTVPSTDLNRGSRITSELKKKESNAVRGQPRGSSSTNNNDSSAPGYASRSHPTTDPSHSVRRSSRIRRVPDRYGSSVEHPLTSTGTPRGSTSTQLGQASTRNGSRYTASGRTPSCQGNRYSSIRGEGVTARRERVRSTWR | not soluble |
| MSKDYQSLAKLSPFELKDELIKIASSDGNRLMLNAGRGNPNFLATTPRRAFFRLGLFAAAESELSYSYMTTVGVGGLAKIDGIEGRFERYIAENRDQEGVRFLGKSLSYVRDQLGLDPAAFLHEMVDGILGCNYPVPPRMLNISEKIVRQYIIREMGADAIPSESVNLFAVEGGTAAMAYIFESLKLNGLLKAGDKVAIGMPVFTPYIEIPELAQYALEEVAINADPSLNWQYPDSELDKLKDPAIKIFFCVNPSNPPSVKMDQRSLERVRNIVAEHRPDLMILTDDVYGTFADDFQSLFAICPENTLLVYSFSKYFGATGWRLGVVAAHQQNVFDLALDKLQESEKVALDHRYRSLLPDVRSLKFIDRLVADSRAVALNHTAGLSTPQQVQMALFSLFALMDEADEYKHTLKQLIRRRETTLYRELGMPPLRDENAVDYYTLIDLQDVTAKLYGEAFSEWAVKQSSTGDMLFRIADETGIVLLPGRGFGSNRPSGRASLANLNEYEYAAIGRALRKMADELYAEYSGQAQNLKLAAALEHHHHHH | soluble |
| MGSDKIHHHHHHMLVASLVLLGLYDLFQAKHSILRNFPVIGHMRYLLEMIGPELHQYFVESDTDGKPINKNHRNYIYERAKEQNQTRPFGTQLNVYDDNYKWMQHSIYPAKKMDTPPRVVIGGKDCQQPYSASLFNISAMSFGALSKNAIQALNLGAKAGEFFHDTGEGGISEYHLQGGDLVWEIGTGYFGCRTGNGCFDAEKFKQKANWE | not soluble |
| IEEGKIVFAVGGAPNEIEYWKGVIAEFEKKYPGVTVELKRQATDTEQRRLDLVNALRGKSSDPDVFLMDVAWLGQFIASGWLEPLDDYVQKDNYDLSVFFQSVINLADKQGGKLYALPVYIDAGLLYYRKDLLEKYGYSKPPETWQELVEMAQKIQSGERETNPNFWGFVWQGKQYEGLVCDFVEYVYSNGGSLGEFKDGKWVPTLNKPENVEALQFMVDLIHKYKISPPNTYTEMTEEPVRLMFQQGNAAFERNWPYAWGLHNADDSPVKGKVGVAPLPHFPGHKSAATLGGWHIGISKYSDNKALAWEFVKFVESYSVQKGFAMNLGWNPGRVDVYDDPAVVSKSPHLKELRAVFENAVPRPIVPYYPQLSEIIQKYVNSALAGKISPQEALDKAQKEAEELVKQYS | soluble |
| NGSKTDLGLLSKNSADFLGSSKRSLAGFDTPFSPDNLQYLEKETDYDQNFKSFTEKFKDEKITNNQLGIVDIYNLFSGFHKSVKSTVDLMNQLQKQVEAANAIFPVDDAFVKLPKVPTELFKLVDDNVFPKLNPKGLNISDNIAALFERYNLKSIELKNFDLAFLRKADVIIKDKVRYNFEM | not soluble |
| MVKKSEFERGDIVLVGFDPASGHEQQGAGRPALVLSVQAFNQLGMTLVAPITQGGNFARYAGFSVPLHCEEGDVHGVVLVNQVRMMDLHARLAKRIGLAADEVVEEALLRLQAVVE | soluble |
| MAGHVHKVAVRQLKLLRYRNYFSFNIRFSGQHVVFTGHNGSGKTNLLEALSFLSPGRGLRRAAYSDVSFANGGGEGFVVFARLECALYGEVNIGTALEMSDNSRKVHINGVNETGDCLTDYCHMSILTPSMDGLFTGSSLERRRFLDRMVLAIDPLHSRRIADYDRVMRARNRLFLDGNEDCAWFDALEKQMAELATAISAARIDVIRLLNDMLARTPSQLPFPRAFLQIDGFLEAALSKISAVEVEEQFCDRLQHNRAIDRAAGRTLEGPHRTDLQVFYADKNMAAASCSTGEQKALLTGLVLCHARLTGLMSERTPILLLDEIVAHLDSHRRAALFDILDDLGGQTFMTGTDPILFNALKGRAEFFAIKDGTLLQ | not soluble |
